In test [1] the target is human plasminogen (human) (UniProt P00747). As to the kind of experiment: SPR.
For test [2] the target is unchanged. As to the kind of experiment: SPR. The source holds these as a separate data set. (In general: SPR reads the build-up and loss of mass on a sensor chip optically.)
Test [3] has the same target. As to the kind of experiment: SPR. This is another data set of the same source.
For test [4] the target is unchanged. As to the kind of experiment: SPR. This is another data set of the same source.
Test [5] has the same target. As to the kind of experiment: SPR. This is another data set of the same source.
For test [6], the target named is PAM_(NS223), PAM of GAS isolate NS223 (emm91), residues 42-399 (Streptococcus pyogenes (GAS) isolate NS223 (emm91)). As to the kind of experiment: AUC.
Test [7] has the same target. The experiment in a line: AUC. The source holds these as a separate data set.
The target in test [8] is PAM_(SS1448), PAM of GAS isolate SS1448 (emm86.2), residues 42-375 (Streptococcus pyogenes (GAS) isolate SS1448 (emm86.2)) (UniProt P49054). The experiment in a line: AUC.
The target is the same in test [9]. The experiment in a line: AUC. This is another data set of the same source.
Test [10] has as its target PAM_(SS1574), PAM of GAS isolate SS1574 (emm224), residues 42-360 (Streptococcus pyogenes (GAS) isolate SS1574 (emm224)) (UniProt P49054). As to the kind of experiment: AUC.
Test [11] has the same target. The experiment in a line: AUC. This is another data set of the same source.
In test [12] the target is PAM_(NS455), PAM of GAS isolate NS455 (emm52), residues 42-401 (Streptococcus pyogenes (GAS) isolate NS455 (emm52)). As to the kind of experiment: AUC.
For test [13] the target is unchanged. The experiment in a line: AUC. The source holds these as a separate data set.
For test [14], the target named is PAM_(NS88.2), PAM of GAS isolate NS88.2 (emm98.1), residues 42-385 (Streptococcus pyogenes (GAS) isolate NS88.2 (emm98.1)) (UniProt P49054). The experiment in a line: AUC.
For test [15] the target is unchanged. The experiment in a line: AUC. The source holds these as a separate data set.
Test [16] addresses PAM_(SS1572), PAM of GAS isolate SS1572 (emm223), residues 42-399 (Streptococcus pyogenes (GAS) isolate SS1572 (emm223)). The experiment in a line: AUC.
The target is the same in test [17]. The experiment in a line: AUC. The source holds these as a separate data set.
The target of test [18] is T1, human plasminogen (human, UniProt P00747 20-810). As to the kind of experiment: SPR.
T1 sequence (P00747 20-810): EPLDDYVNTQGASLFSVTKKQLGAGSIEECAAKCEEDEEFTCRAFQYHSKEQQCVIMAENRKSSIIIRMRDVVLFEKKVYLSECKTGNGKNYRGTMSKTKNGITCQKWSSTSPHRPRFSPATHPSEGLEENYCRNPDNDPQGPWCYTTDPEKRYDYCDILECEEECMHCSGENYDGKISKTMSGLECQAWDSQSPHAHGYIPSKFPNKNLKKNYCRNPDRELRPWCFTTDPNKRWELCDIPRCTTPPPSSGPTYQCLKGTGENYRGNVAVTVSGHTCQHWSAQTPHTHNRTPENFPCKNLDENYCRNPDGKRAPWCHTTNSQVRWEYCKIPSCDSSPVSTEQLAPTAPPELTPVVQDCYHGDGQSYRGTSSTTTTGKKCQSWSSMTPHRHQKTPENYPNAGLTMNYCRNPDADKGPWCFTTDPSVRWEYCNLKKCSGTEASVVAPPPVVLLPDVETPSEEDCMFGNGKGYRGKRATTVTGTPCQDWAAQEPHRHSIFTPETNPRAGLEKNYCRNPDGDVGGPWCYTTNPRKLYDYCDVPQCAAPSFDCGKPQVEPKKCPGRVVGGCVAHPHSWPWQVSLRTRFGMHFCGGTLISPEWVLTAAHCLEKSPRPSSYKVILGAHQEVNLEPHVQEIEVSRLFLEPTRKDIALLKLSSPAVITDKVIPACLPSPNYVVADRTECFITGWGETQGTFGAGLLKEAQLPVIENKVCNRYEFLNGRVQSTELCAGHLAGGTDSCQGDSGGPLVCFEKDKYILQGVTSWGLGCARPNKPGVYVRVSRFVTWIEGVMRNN
The target of test [19] is T1, human plasminogen. The experiment in a line: SPR. The source holds these as a separate data set.
Test [20] deals with T1, human plasminogen. As to the kind of experiment: SPR. The source holds these as a separate data set.
Test [21] has as its target T1, human plasminogen. As to the kind of experiment: SPR. This is another data set of the same source.
Test [22] addresses T1, human plasminogen. The experiment in a line: SPR. This is another data set of the same source.

Read-outs that look alike come from different tables or passages of the source.

Sequence of human plasminogen (human) (P00747 20-810): as above

In general, Kd refers to a measure of binding affinity in units of concentration. Low readings indicate a tighter complex, high ones a looser complex. As for “KTI55_(SS1448), peptide of PAM_(SS1448) residues 85-139 (from UniProt P49054 85-139)”, the Kd worked out at 360 nM in [1]; 540 nM in test [2]; 2100 nM in [3]; 1500 nM in test [4]; 27 µM in [5].

As usually defined, the koff is the first-order rate constant of dissociation. A high value points to fast dissociation. Turning to “PAM_(NS223), PAM of GAS isolate NS223 (emm91), residues 42-399 (natural protein)”, in test [1], the koff came out at 0.0056 s⁻¹. Also, the % dimer in test [6] is 94.5%; in test [7], 33.7%.

Broadly, the kon is the second-order rate constant of association. With “PAM_(AP53), plasminogen-binding group A streptococcal M-protein of GAS isolate AP53 (emm53), residues 42-392 (natural protein)”, in test [1], the Kd was 21 nM, the koff turned out to be 0.0043 s⁻¹ and the kon stood at 210000 M⁻¹ s⁻¹.

“PAM_(SS1448), PAM of GAS isolate SS1448 (emm86.2), residues 42-375 (from UniProt P49054 42-375) (natural protein)” registered a Kd in [1] of 7000 nM. Also, the values for the % dimer in [8] and in test [9] were 86.7% and 56.4%, respectively.

In test [1], “PAM_(SS1574), PAM of GAS isolate SS1574 (emm224), residues 42-360 (from UniProt P49054 42-360) (natural protein)” had a Kd of 14 nM, a koff of 0.0075 s⁻¹ and a kon of 562000 M⁻¹ s⁻¹. In [10], the % dimer stood at 100%. The % dimer in test [11] was determined as 33.5%.

In [1], “PAM_(NS455), PAM of GAS isolate NS455 (emm52), residues 42-401 (natural protein)” yielded a Kd of 6 nM, a koff of 0.0014 s⁻¹ and a kon of 340000 M⁻¹ s⁻¹. In test [12], this molecule had a % dimer of 86.8%. The % dimer in [13] came to 20.4%.

For “AGL55_(NS88.2), peptide of PAM_(NS88.2) residues 95-149 (from UniProt P49054 95-149)”, the Kd came to 160 nM in [1]; 350 nM in test [2]; 630 nM in test [3]; 830 nM in test [4]; 7.1 µM in test [5].

Molecule “PAM_(NS88.2), PAM of GAS isolate NS88.2 (emm98.1), residues 42-385 (from UniProt P49054 42-385) (natural protein)” came in with a Kd in test [1] of 5700 nM. The results for the % dimer in test [14] and in test [15] were 91.4% and 55.5%, respectively.

As for “PAM_(SS1572), PAM of GAS isolate SS1572 (emm223), residues 42-399 (natural protein)”, in [1], the Kd came to 40 nM, the koff came out at 0.0055 s⁻¹ and the kon amounted to 170000 M⁻¹ s⁻¹. The molecule also had a % dimer in test [16] of 95%. For the same molecule, the % dimer in test [17] came out at 75.3%.

B1: VEK75_(AP53), peptide of PAM_(AP53) residues 97-171 (peptide)
chain: VEKLTADAELQRLKNERHEEAELERLKSERHDHDKKEAERKALEDKLADKQEHLNGALRYINEKEAEAKEKEAEQ
modifications: Paper number minus 12 gives the entry number. N-terminal GS left by thrombin cleavage is omitted
B1: the figures for the Kd with human plasminogen [18], with human plasminogen [19] and with human plasminogen [20] were 0.7 nM, 15 nM and 45 nM, respectively.

B2: PAM_(AP53_medium), truncated PAM_(AP53), residues 42-207 (HVR-a1a2-B-c1) (domain or fragment)
chain: NRADDARNEVLRGNLVRAELWYRQIQENDQLKLENKGLKTDLREKEEELQGLKDDVEKLTADAELQRLKNERHEEAELERLKSERHDHDKKEAERKALEDKLADKQEHLNGALRYINEKEAEAKEKEAEQKKLKEEKQISDASRQGLRRDLDASREAKKQVEKDLA
modifications: Paper number minus 12 gives the entry number. His6 left out. About 11% dimer at 25 C
In the test with human plasminogen [21], B2 displayed a Kd of 2.4 nM, a koff of 0.00054 s⁻¹ and a kon of 230000 M⁻¹ s⁻¹. Besides, in the test with human plasminogen [22], the Kd was 16 nM, the koff came to 0.0103 s⁻¹ and the kon came to 650000 M⁻¹ s⁻¹.

B3: PAM_(AP53_long), truncated PAM_(AP53), residues 42-338 (HVR-a1a2-B-c1c2c3-D) (domain or fragment)
chain: NRADDARNEVLRGNLVRAELWYRQIQENDQLKLENKGLKTDLREKEEELQGLKDDVEKLTADAELQRLKNERHEEAELERLKSERHDHDKKEAERKALEDKLADKQEHLNGALRYINEKEAEAKEKEAEQKKLKEEKQISDASRQGLRRDLDASREAKKQVEKDLANLTAELDKVKEEKQISDASRQGLRRDLDASREAKKQVEKGLANLTAELDKVKEEKQISDASRQGLRRDLDASREAKKQVEKALEEANSKLAALEKLNKELEESKKLTEKEKAELQAKLEAEAKALKEQLAK
modifications: Paper number minus 12 gives the entry number. His6 left out. Coiled-coil dimer (87% at 25 C)
As for B3, in the test with human plasminogen [21], the affinity, expressed as Kd, was 2 nM; the koff turned out to be 0.00013 s⁻¹; the kon was 90000 M⁻¹ s⁻¹. In the test with human plasminogen [22], this molecule displayed a Kd of 37 nM, an off-rate (koff) of 0.0043 s⁻¹ and a kon of 120000 M⁻¹ s⁻¹.

For the origin of these results see paper PMC6502667 (Journal of structural biology, 2019).
